# The supplement of paper PMC10126150
# ± gives the standard deviation of the averaged measurements.
# Test system: ATP
# Experiment: switch fluorescence ratio, 500 uM ATP over buffer (Cy3 cluster intensity, sum of 5 cycles each) (fold (ratio)); higher = stronger signal-on switching upon ATP binding; sequences stand for … in TCGTCGGCAGCGTCAGATGTGTATAAGAGACAGTTTTTTTTTTTTTTTTTTTTTTTTT…TC
# Conditions: aptamer strand: ATP DNA aptamer (quencher-CACCTGGGGGAGTATTGCGGAGGAAGG + anchor), 100 nM annealed; ATP concentration: 500 uM
# In short: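 For every switch-domain sequence, the fluorescence ratio is the mean of per-cluster values, each being summed target-cycle Cy3 intensity over summed buffer-cycle Cy3 intensity. Clusters outside 100-1000 RFU were excluded. On a modified Illumina MiSeq flow-cell, the Cy3-labelled switching-strand clusters were annealed to 100 nM quencher-labelled ATP aptamer, imaged in selection buffer and then after 15 min with 500 uM ATP at 22 °C. Five such cycles were run, with NaOH stripping and re-annealing between them.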
# 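Note: ATP exposure 15 min at 22 °C before imaging.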
row,Sequence,switch fluorescence ratio
1,TATCAGGTAG,1.001 ± 0.0052
2,ATGTGCGTAG,1.01 ± 0.017
3,CGCATTTAGG,1.08 ± 0.027
4,TTTGTTGTTT,0.986 ± 0.013
5,CGTTGTTGTA,1.01 ± 0.02
6,GAACGGCTG,1.07 ± 0.049
7,GAGTATTGGT,0.9817 ± 0.0094
8,CAGGACCTCG,1.03 ± 0.024
9,TTGGGTTGGC,1.02 ± 0.043
10,GCATTTAAGT,0.993 ± 0.06
11,CCGTTCGACA,1.37 ± 0.058
12,TAGCGCAGGC,0.996 ± 0.025
13,CAGATAGGCT,1.04 ± 0.019
14,AGTAAAAAGG,0.993 ± 0.021
15,TCTTATTGG,1.02 ± 0.028
16,GGATTTGCCA,0.989 ± 0.038
17,TGGGCACGGT,0.969 ± 0.049
18,AGATTGGAGA,1 ± 0.039
19,CGATTGCATT,1.27 ± 0.045
20,GCAGGTGGCG,1.01 ± 0.044
21,CCAGGGCGTG,1.02 ± 0.069
22,GTTGCGGTTG,0.986 ± 0.039
23,GGTGTGCCGT,0.989 ± 0.1
24,TGGAGAGTGT,0.963 ± 0.036
25,AATCGTCTTT,0.961 ± 0.024

row,Sequence,switch fluorescence ratio
1,GGAAATGGGT,1.05 ± 0.036
2,AATCATCGTG,0.9646 ± 0.0043
3,GGTAGTGGGC,1.02 ± 0.034
4,CGTGTAATTC,1.03 ± 0.1
5,CTCCGAGGGG,1.31 ± 0.21
6,AGGGAGGACT,1.022 ± 0.009
7,CGACGTTGGT,1.08 ± 0.043
8,TTTGAGGTTT,1.01 ± 0.011
9,AGGGGGAGTC,1.02 ± 0.053
10,GCTGGGGGAG,0.982 ± 0.067
11,TTGGCATACT,2.64 ± 2.2
12,ATTCAGTTAT,0.997 ± 0.021
13,TGTGGTAGCG,1.01 ± 0.018
14,AAAAGTATGG,1 ± 0.015
15,TTTGTGGTCC,0.98 ± 0.039
16,GATTTCCCGC,1.26 ± 0.043
17,GAAGTCGTT,0.973 ± 0.0057
18,GCATAAAGGG,0.989 ± 0.019
19,GCGGTAGTTC,1.02 ± 0.023
20,TGTGTTGTGG,0.997 ± 0.028
21,AGTTTTGTTT,1.01 ± 0.02
22,AAAAGTGTAT,0.98 ± 0.03
23,GGCTTTACCT,1.101 ± 0.0097
24,TTTATAGGCG,0.987 ± 0.023
25,TGAGTGCCTA,0.973 ± 0.047

row,Sequence,switch fluorescence ratio
1,GGGATTGAGG,1.01 ± 0.032
2,CGGTGTGTGC,1.04 ± 0.026
3,TATTAGTAGC,0.9995 ± 0.0013
4,CGCGGTGGGA,1.02 ± 0.026
5,AATCGGGGTT,0.948 ± 0.015
6,GTAGGGGAAG,1.01 ± 0.017
7,GTCACAGTTG,1.015 ± 0.0045
8,GTGATAAAGG,1.01 ± 0.03
9,GGGACCTTTT,1 ± 0.032
10,ATTTGAGGTG,1.03 ± 0.038
11,TTCCTAAATT,0.9979 ± 0.0034
12,TCCAAAGAGA,0.97 ± 0.039
13,TAATGAGTGG,1.0154 ± 0.001
14,GTGTTCGGGC,1.02 ± 0.011
15,TTGTATCAGT,1.01 ± 0.024
16,ATTTTAGCTC,0.984 ± 0.015
17,TCATCTTGTC,1.01 ± 0.04
18,TGTTTTTAGT,0.9945 ± 0.0039
19,ATGGAAAAAG,0.963 ± 0.046
20,AACTTTTTAC,1.05 ± 0.028
21,ACATCTAGGC,1.069 ± 0.0093
22,TTGATTAAGA,1.06 ± 0.078
23,GCGGGCCTTT,1.015 ± 0.0066
24,GATTTGAGGC,0.987 ± 0.018
25,AGGCTCATAG,0.96982 ± 0.00072

row,Sequence,switch fluorescence ratio
1,GAGTGTTGGG,1.004 ± 0.0052
2,GCTTACAGGA,1.01 ± 0.033
3,GATCTCAGGG,1 ± 0.034
4,TCTTTGCGCC,1.06 ± 0.019
5,AAAAACAGGG,1.16 ± 0.097
6,CAGAGTAAGC,1.01 ± 0.021
7,CACTTTGGAT,0.9914 ± 0.0032
8,CGGTCGCTGG,0.991 ± 0.026
9,GGGGTACGCG,0.984 ± 0.024
10,GTTGTTTAGT,0.994 ± 0.026
11,TTGTGTGTTT,0.989 ± 0.024
12,TTTTGCTTGA,1.07 ± 0.052
13,AGTTGCTTCG,0.975 ± 0.026
14,ACGTCTATGT,0.992 ± 0.0074
15,CCCCAGAGCT,1.66 ± 0.066
16,AGGGTCATCT,1.012 ± 0.002
17,TTTAATACTT,1.03 ± 0.0052
18,AGAATGGATC,1.01 ± 0.012
19,TACGAGTGGT,0.99394 ± 0.00054
20,ATAGACTTAT,0.9765 ± 0.0093
21,CCGTGTAAGC,1.343 ± 0.0024
22,CAATGCAGTG,1 ± 0.019
23,GACGCTAGGG,1 ± 0.052
24,GATGTGAAAG,0.9638 ± 0.003
25,ATAGGGCCGC,1.02 ± 0.034

row,Sequence,switch fluorescence ratio
1,TTATGCTTTT,1.0043 ± 0.00054
2,GAGAGGGTAG,0.9801 ± 0.0095
3,TTGTTCGGGG,1.03 ± 0.056
4,GTTGGTCTGA,0.954 ± 0.022
5,GTGCGAGAGC,1.01 ± 0.043
6,GGGTTTTGCT,0.955 ± 0.028
7,TGGTGTCGT,1.01 ± 0.011
8,TGTTTAAGAG,1 ± 0.023
9,TGTGAGTTTT,0.974 ± 0.014
10,GTTTGGCATA,1.14 ± 0.19
11,TAGTAGACTG,1.01 ± 0.05
12,GATTATATAG,0.957 ± 0.019
13,GGGGACCTAC,1.08 ± 0.022
14,TACCGGGTGG,1.06 ± 0.027
15,CGTGGATTTT,0.972 ± 0.034
16,CCGGAGTTGG,3.49 ± 0.11
17,TTTCGTGGAG,0.996 ± 0.02
18,CAGGGGTGCG,0.991 ± 0.013
19,GTTGGAATTG,0.992 ± 0.024
20,GAGAACGGTT,1.03 ± 0.052
21,TGAGTAGATA,1.01 ± 0.018
22,GAGGCGGCAT,1.04 ± 0.0066
23,CACAAAAGTG,1.02 ± 0.02
24,TTCGATATGT,0.984 ± 0.022
25,TCGTATTGTG,0.975 ± 0.032

row,Sequence,switch fluorescence ratio
1,GGGTTTGTCA,1.02 ± 0.029
2,CAATGGGCGT,1.0067 ± 0.00057
3,CTGTTTCCGA,1.03 ± 0.052
4,CTATTACTTA,1.02 ± 0.032
5,AGAACTCTTT,1.02 ± 0.022
6,CCTGTTTTAC,1.24 ± 0.045
7,GAAAGTATGT,1 ± 0.024
8,AAAATTTCGC,1.01 ± 0.018
9,GTATGGTGGG,1.02 ± 0.04
10,TACGGAGGGC,1.02 ± 0.05
11,ACGGGAAGGC,1.09 ± 0.035
12,CTCGAAGTTG,0.9692 ± 0.0025
13,CAGGGATGTG,1.03 ± 0.013
14,TTATTTATGT,1 ± 0.012
15,TATAAAAAAA,1.02 ± 0.051
16,TGTAAATACA,1.15 ± 0.18
17,TAGATCATGT,1.016 ± 0.0026
18,TCTGTGGCTG,1.05 ± 0.1
19,CATAGTATGT,0.973 ± 0.067
20,TAGTCATTTG,0.962 ± 0.0097
21,GATCGGTAAT,1.04 ± 0.028
22,CTTTAATTCG,1 ± 0.028
23,GCGTGCTGTA,1.013 ± 0.006
24,GGTTATGGCT,0.9973 ± 0.0025
25,TTTTATTAAT,0.978 ± 0.04

row,Sequence,switch fluorescence ratio
1,ATGTCTTGTG,0.985 ± 0.026
2,AAGGTACGAA,1.04 ± 0.011
3,GGGAAAGGTA,0.986 ± 0.011
4,GGTCGGGTAT,1.01 ± 0.031
5,ATTTTATGGG,0.999 ± 0.019
6,TGGTTATAAT,0.992 ± 0.024
7,AGCTTTTTGT,0.947 ± 0.023
8,GCGTATTGGC,1.03 ± 0.013
9,CGAAACTCTG,1 ± 0.03
10,TCCTGCATGG,1.22 ± 0.037
11,TTACAGGGG,1.18 ± 0.027
12,CGGATATATA,1.08 ± 0.049
13,CGTCCGAGGT,1.3 ± 0.048
14,AGGAAATTTT,1.01 ± 0.025
15,AAAACGAATT,1.01 ± 0.044
16,AGCTGGGCCT,1.04 ± 0.011
17,GACGGAGACC,1.11 ± 0.027
18,AACGTAAATT,1.33 ± 0.31
19,CACTAGGCTT,1 ± 0.045
20,ACAGACAGCG,1.06 ± 0.022
21,CCGGATACGT,1.39 ± 0.086
22,TTATAGTGGG,1 ± 0.022
23,CGGGGCTCCT,0.995 ± 0.036
24,GAAGGTAGAG,0.99 ± 0.042
25,ATTTTGAGGT,0.987 ± 0.018

row,Sequence,switch fluorescence ratio
1,CGCAGCGATG,2.66 ± 0.11
2,ACAGTTTTCT,1.01 ± 0.024
3,AGGTGCATAA,1.05 ± 0.017
4,ACAGGAGCTT,1.05 ± 0.04
5,TGTCTCAGAT,0.97948 ± 0.00033
6,ATTCCCGGGG,1.06 ± 0.059
7,TGTCCCACAA,0.999 ± 0.035
8,TGTGGGTTAT,0.976 ± 0.011
9,CGGGGGATCC,1.13 ± 0.16
10,CATCGCATTT,2.32 ± 0.91
11,GGTAAAGGTT,0.999 ± 0.034
12,TCACTCATTG,0.9975 ± 0.0014
13,TAGGGCTTAA,0.993 ± 0.042
14,AAGTTGCGGG,0.964 ± 0.078
15,TAATATGGTG,0.998 ± 0.014
16,AAGGGTCGCG,1.02 ± 0.055
17,ATTTTTACAG,1.03 ± 0.032
18,CGTCTAAGTG,0.99 ± 0.019
19,TTGTTAGGGG,0.986 ± 0.019
20,TTTCCTGACG,1.06 ± 0.028
21,GGATTCTAGG,0.969 ± 0.02
22,TAGTAAAAAC,0.9938 ± 0.0061
23,ATATTATTTT,0.9788 ± 0.0047
24,TTTTCGCTAA,1.55 ± 0.96
25,TAAAGGAGAT,1.03 ± 0.032
